Measured values from the DeepSol protein solubility set.

Assay: soluble on expression in E. coli; label from the status in PepcDB or PDB records

Sequence | soluble on expression in E. coli
MGQAGKQVAPVKCKGWAVEKPALKWSTDAVRLSDVTVPAPDPTQIRVRVYAASINPVDWKRVMFPASGSGPGVAGSALKGFKGMHHKPPNYPYPYVVGVDGAGEVESVGRKVTGLKAGDRVMFHSSLTNAHGGSLCEYAVMEESVAVPIPADGARPFSYEEAAAIPCATWTAYVALFDKLRIEPGRSIFVDGASGAVGSCAVQLAHHMGLYVFASCSPSNADYVRSIGADQVLNYHDGIEMVDQILDATEGYGVDYYLAVTNTQDAESFTDALRFGGAVCLLSGVLIPNSNVLFRRQLSVHYVFLNGLHGHPLTRPQLRYIGDQVAKLYQSGAFRLD | not soluble
MAHHHHHHMGSLSSSSSSSAATGAGAAASQTDAQEVTPVDSLWSPHDVCEAAVDYVLRHVNTVQYMIQSIEEITGKPFLRDRIKCLPAVPRDEASRNPTMGLTPDRVFAGYMWRSARSDCQAKDVVLLEDHIARLFNTKHATAFLKKDKGVNERAASPPTTSDAAATAASSLSTTATQSQLQRLLAGSQLPVLEQVERNIRHELVHAFDDARGAIESSDCVHQACSEIRAARLSGDCFVGQEMRKGRFNFFEGGQKCVRRRAVMAVDRNPVCRGFSERAVDTVFQKCYSDYEPFAAPIYALGSYGDSQFANGTLKL | not soluble
MVRVYIGRLPNRASDRDVEHFFRGYGKLSDVIMKNGFGFVDFQDQRDADDAVHDLNGKELCGERVILEFPRRKVGYNEERSGSGFRGREPTFRKGGERQFSNRYSRPCSTRFRLVIDNLSTRYSWQDIKDHIRKLGIEPTYSEAHKRNVNQAIVCFTSHDDLRDAMNKLQGEDLNGRKLKCTDETRDRSRSRSPRRRSRSRSPTRSRSPPARRRSPGSDRSDRKSRSASPKKRSDKRARSESKSRSRSGGRRSRSNSPPNRSPSPKKRRDNSSPRSGSASP | not soluble
MGHHHHHHSHMSETTQTSQSLYQALWNSADVLRSKMDANDYKSYLLGMVFYKYLSDKMLFFVAETMEEETESLDEALAVYRKYYEDEETHEDLLAVITDEMSYAIHPDLTFTALVERVNDGSFQLEDLAQGFRDIEQSDELYENLFEDIDLYSKKLGATPQKQNQTVAAVMKELAVLDVAGHAGDMLGDAYEYLIGQFATDSGKKAGEFYTPQPVAKLMTQIAFLGREDKQGFTLYDATMGSGSLLLNAKRYSRQPQTVVYFGQELNTSTYNLARMNMILHGVPIENQFLHNADTLDEDWPTQEPTNFDGVLMNPPYSAKWSASSGFMDDPRFSPFGKLAPKSKADFAFLLHGYYHLKQDNGVMAIVLPHGVLFRGNAEGTIRKALLEEGAIDTVIGLPANIFFNTSIPTTVIILKKNRTNRDVYFIDASKEFDKGKNQNIMTDAHIEKILNAYKSREDIDKFAHLASFEEIVENDYNLNIPRYVDTFEEEEVEPLTEIVAKINQTNATIESQTASLLDMLGQLHGTTPEADEELKAFVKAFKG | not soluble
MIKIAITKGRIQKQVTKLLENADYDVEPILNLGRELQIKTKDDLQIIFGKPNDVITFLEHGIVDIGFVGKDTLDENDFDDYYELLYLKIGQCIFALASYPDFSNKNFQRHKRIASKYPRVTKKYFAQKQEDIEIIKLEGSVELGPVVGLADAIVDIVETGNTLSANGLEVIEKISDISTRMIVNKSSFKFKKDKIIEMVERLEDAQTN | soluble
MERDGCFGNCWLRRWEKSDMNRKGFGGHRDAKQLSRTKNRFARLDPDTQSRYEDDDEPAVPVRASLTSASSRGRGGSSRGFGQSAASIANTGVRNADIVYKCRATGAAKKVDAKWLIKQLNQIIENFKPLLWTDNARGDFEWYVRDEDTASTIRANNRRVVHKESGTRVEFYTSKVPAPWMKLKREEIEIIHRVVDKRHNAENRVLDLSNFHEDEEFKAKDMMMNLTKGNVMLTVLDHIDDKYGNIVALSLSNNRIRHLDYASALVSIAKFVMELDLSHNHISTEKELEKFAGLPVERFFFEGNPVVESFTQRAAYISYIHQSFPRCNMLDGVEVQPLVVGPDLDIHDAMPFRAGYYPNPQIRVLVEQFVTSYFDFYDGPDGQRTRRNLHNAYDADASTFSLTIEHLRGSSHARHHNDECFAQYAGVSHNVLKQERFARHRASRSARGAMDIAVALSKLPTSSHMRDTFIVDVFLQSNDLLGFTVQGLFCDGDLTQTPSPSFFSRSFLVSPRENDSVAVISDQLFITVASLDRLEKFKKLYDQSIANGAAVEQVSAVQIAQIGVNGMGFDGAPALPIREEMIKAMCQFSGMIPPFSEKCLADCAWNFDFACQKFNEIKSSVPAEAFAH | not soluble
MGSDKIHHHHHHMASFPELPALRRLATLGRSWGLLSDFKYEQTRPDIFYGNLALDTSSLVAALSEDISGAGLNDLKVLDVGGGPGYFAEAFETLGATYFSVEPDVGEMSAAGIDVHGSVRGSGLDLPFLPDSFDVVYSSNVAEHVSAPWELGEEMLRVTRSGGLAILSYTIWLGPFGGHETGLWEHYVGGEFARDRYTKKHGHPPKNVFGESLFNVSCREGLEWGASVGNAELVAAFPRYHPYWVWWMVKVPVLREFAVSNLVLVFKKH | not soluble
KVVFAKEQPAHREVQAEAGASATLSCEVAQAQTEVTWYKDGKKLSSSSKVRVEAVGCTRRLVVQQAGQAEAGEYSCEAGGQQLSFRLQVAGQCFG | soluble
MSLNDTFVVVDLETTGHSVKKGGRIIQIGMTFIKKRQIVDHFESFVNPGQLIDRQIQQLTHISQKDVQNAPYFEEIAPLLQNLLQNTVIIAHNVNFDYPYLNDEFERTGFPLLKSAAIDTVQLAQIMFPTAPGYRLLDLTTYLNITLKNAHRANADAHATALLFLKFWKKLEELPDITLKQLQQGDWPLLRQTQQFLKLVHSKNEGHHHHHH | not soluble
MDILLMDTIQQEVLALFREEIPGYLDSNWKEIPLELDSDLFEAPGDDLHEALDKFEKKFNVDLSQVKWSCYFPWENTPLLTRWFKLKREDVERTRKPLTIRMFSESAKAGKWLYD | not soluble
MYQKFKGGDLMIHGGDIYTEGVFKGRELLDYSSNINPLGIPKSFLNNIDEGIKNLGVYPDVNYRRLNKSIENYLKLKDIGIVLGNGASEIIELSISLFEKILIIVPSYAEYEINAKKHGVSVVFSYLDENMCIDYEDIISKIDDVDSVIIGNPNNPNGGLINKEKFIHVLKLAEEKKKTIIIDEAFIEFTGDPSSSFVGEIKNYSCLFIIRAMTKFFAMPGIRFGYGITNNKEIAAKIKAKQNPWNINCFAEMAAINCLKDTNYIEESLLWIKKERKRFIEELNKIGFIKRVFSPHANFVLCRLENISGEKLYDSLLKEDIVIRRCCNFIGLDDSFVRFAIKDEKKNTKFLRALKGVENNL | soluble
GSHMSVRIVDVREITKPISSPIRNAYIDFTKMTTSLVAVVTDVVREGKRVVGYGFNSNGRYGQGGLIRERFASRILEADPKKLLNEAGDNLDPDKVWAAMMINEKPGGHGERSVAVGTIDMAVWDAVAKIAGKPLFRLLAERHGVKANPRVFVYAAGGYYYPGKGLSMLRGEMRGYLDRGYNVVKMKIGGAPIEEDRMRIEAVLEEIGKDAQLAVDANGRFNLETGIAYAKMLRDYPLFWYEEVGDPLDYALQAALAEFYPGPMATGENLFSHQDARNLLRYGGMRPDRDWLQFDCALSYGLCEYQRTLEVLKTHGWSPSRCIPHGGHQMSLNIAAGLGLGGNESYPDLFQPYGGFPDGVRVENGHITMPDLPGIGFEGKSDLYKEMKALAE | soluble
MGLCVSVNRNEYVSSSTTAKIVTINGDLREYDVPVLASQVLESESTSSSSSSSSSSYFLCNSDSLYYDDFIPAIESDEILQANQIYFVLPISKRQYRLSASDMAALAVKASVAIEKAAGKKNRRRRSGRISPVVTLNQANDNRIAAVNNRIGGEATNMMMQKGKLPNRTTPFKDTNGYSRSGSVRKLKRYTSGRAKLAVRSFRLRLSTIYEGSSFN | not soluble
MGSDKIHHHHHHMSAIPQAARKRGRPVKGESATLRDELILKSAKLFRTQGYERTTVRDIAAAAGVQAGSWFYYFKTKQDILVAVMEQGMSNALARIEALDVEHLPARDAFRALVHTHLHTLVSPDHDFIPVLLYEWKSLDEAMQAKVLKLKDRYEAVWDGVIERLQAAGEWPAPTPIDRLLMFGALNWVAQWYKPDGALGLDALAEHAVRFLLRTAETPAPAPAGTAKRRRGVKAS | not soluble
MSKHRIALAGNPNTGKSTLFNTLTGLKQHTGNWTGKTVLKAEGEYEHNGSNYTLIDLPGTYSLYSNSADEEVARDYIIFEKPEVTVVVIDATAMERNLNLALQVMEMTNNVVICINLIDEAEKKGIVIDEKKLAKSLGVPVVKISARNRVGIGHLLNVIAKVANKKLIPTPIKITYSEKIENMIQELEPQIYKVFGDTYPARWIALRILDGDKNFLTTLQKHHNEPLVREVVINGISLSQ | not soluble
MGSDKIHHHHHHMAKNKTAYVCSECGQDFPRWQGQCNACGEWNTISEVRLAPAKSSAGSVAGYAGAVGGGSKKLSEVEEFEAKKLLTGIGELDRVLCGGLTTGSVNIISGDPGAGKTTILSDLVSRMSQLMPSLYCTAEESLSQFKNRVNRLRLDCNEENLYLMAETNVEAIIAELEAKQVKFAVIDSIQAVVTDLANGSPGSPSQVKGSAQALTQYCKQNNVTMFLVAHVNKNNETAGPQTLIHIVDCLTHLECNDGQVRTLRANKNRFGDVDTVGIFRMTERGMLSVDNPSEIFLSGSTTESPGAAITCIRKGNRNLLLEIQCLTTEAEGEFPQRVCVGLNMNRIKMLTGILRKHTRTKIYHDTYFNLVGGLKIDESETCIDLALVAALLSSLNEFVVPRTTCIMGELSLNGDVRPIDSGVPRVKEAVQHGFTEIFIPFRNYHKSMEGLGAKINPIKTIHELLELIC | not soluble
PRNQMPRIHASSGTTGKPTVVGYTKTDLDNWANLMARSMVGAGASPDDIVHNAYGYGLFTGGLGAHYGAERLGCTVVPASGGGTERQVQLIVDFGANVLCCTPSYALNIAEVAEQMGVSLKDAPLRVGLFGAEPWSDAMRRDLEARLGIKAVDVYGLSEIMGPGVACECH | not soluble
MAKNTSSNAFRKIDVDQYNEDNFREDDGVESAAAGPDESEITTLLTQGKSVEALLSALQNAPLRCKNQNVKDHALNITLRVLLSIKSTQMDQAIDTLDQNDLIDVLMKYIYRGFEIPSEGSSGHLLQWHEKAFAKGGVGCIVRVLSDTNRALEHHHHHH | soluble
MGSDKIHHHHHHMKEQYKIIVLSDELSKEKIQNTLDKNKCKTIVHLVDVSAIVQIENSFQYIVIWRMDAEKITNELINRGVQSTKIINLTKYMYEWRNKLISIYQINPDLMSLYISMKKAKGDPTYELFATGLSYPHCGISTELLSKKSIKLTLPSQDLYYDYLIASQLLSNNHSFQYCLIGIAYFSFYFDMSLSSESYRIHKVYYPLFQDGHHTVVHSHLPTDGFSHLDTPKPLFSIFNMHFEYILLDELKNESLILPWIHAEWNTTPPHIPFEEHGKIRAASHAKLSYPHTLVENKTIFKKYLELLLKHDIKPLIVVFPVTSHYFNCSSKKLKEDFYNVIKDFQSQYSFQIIDLFDSPLFCDDDFYDSDHMNKKGANKMSVLLNMFIQERKV | not soluble
MFAYDRLALDLAVFNLKDVDSGNSSSSERSSPPTRIMSQAQNINDESGSSGYGSPTRTPLASPSNDIFSSVLPLQVQRAFSAQSPEEITRHFGVSPSPQAVKPVPEVQQQREQAQVSQTSAQGLAAVDGFSMAEIAGFAELLSSPKKTPPPRYQCHICYATGHHYISDCPQRFNTPYDELTPYQGRKKCYGEFTCQLCKRKWNSQNSVANEPQSCIKCHVPVFPHKQLPVEKAVTLGLIKAQNVTKVAPIGHGRPPARKHEEISRRH | not soluble
